Measurements from US12630600B2 (MEDIMMUNE LIMITED, priority 2022, dated 2026).
Starred links: 1 amine or outer side, 2 acyl side, 3 side chain; linkers in the order of their positions; H or OH if unused. Non-standard residues stand in square brackets, D forms with d. Groups on a side chain read outwards from the residue. No end group written: not given here. *: point of attachment. C20 diacid = O=C(O)CCCCCCCCCCCCCCCCCCC(=O)*; C18 diacid = O=C(O)CCCCCCCCCCCCCCCCC(=O)*; γGlu = O=C(O)[C@H](CCC(=O)[*:2])N[*:1]; αMeF = C[C@](N)(Cc1ccccc1)C(=O)O; AEEA = NCCOCCOCC(=O)O; Aib = CC(C)(N)C(=O)O

B1: Peptide 479 (peptide)
peptide: H[Aib]QGTFTSDVSK[αMeF]LDTK([AEEA-AEEA-γGlu-C20 diacid])RAQDFVRWLLE[Aib]K-NH2
modifications: N-terminus assumed
SMILES: CC(C)C[C@H](NC(=O)[C@H](Cc1c[nH]c2ccccc12)NC(=O)[C@H](CCCNC(=N)N)NC(=O)[C@@H](NC(=O)[C@H](Cc1ccccc1)NC(=O)[C@H](CC(=O)O)NC(=O)[C@H](CCC(N)=O)NC(=O)[C@H](C)NC(=O)[C@H](CCCNC(=N)N)NC(=O)[C@H](CCCCNC(=O)COCCOCCNC(=O)COCCOCCNC(=O)CC[C@H](NC(=O)CCCCCCCCCCCCCCCCCCC(=O)O)C(=O)O)NC(=O)[C@@H](NC(=O)[C@H](CC(=O)O)NC(=O)[C@H](CC(C)C)NC(=O)[C@](C)(Cc1ccccc1)NC(=O)[C@H](CCCCN)NC(=O)[C@H](CO)NC(=O)[C@@H](NC(=O)[C@H](CC(=O)O)NC(=O)[C@H](CO)NC(=O)[C@@H](NC(=O)[C@H](Cc1ccccc1)NC(=O)[C@@H](NC(=O)CNC(=O)[C@H](CCC(N)=O)NC(=O)C(C)(C)NC(=O)[C@@H](N)Cc1c[nH]cn1)[C@@H](C)O)[C@@H](C)O)C(C)C)[C@@H](C)O)C(C)C)C(=O)N[C@@H](CC(C)C)C(=O)N[C@@H](CCC(=O)O)C(=O)NC(C)(C)C(=O)N[C@@H](CCCCN)C(N)=O
B2: Peptide 482 (peptide)
peptide: H[Aib]QGTFTSDVSK[αMeF]LESK([AEEA-AEEA-γGlu-C18 diacid])RAQDFVQWLL[Aib]E-OH
modifications: N-terminus assumed
SMILES: CC(C)C[C@H](NC(=O)[C@H](Cc1c[nH]c2ccccc12)NC(=O)[C@H](CCC(N)=O)NC(=O)[C@@H](NC(=O)[C@H](Cc1ccccc1)NC(=O)[C@H](CC(=O)O)NC(=O)[C@H](CCC(N)=O)NC(=O)[C@H](C)NC(=O)[C@H](CCCNC(=N)N)NC(=O)[C@H](CCCCNC(=O)COCCOCCNC(=O)COCCOCCNC(=O)CC[C@H](NC(=O)CCCCCCCCCCCCCCCCC(=O)O)C(=O)O)NC(=O)[C@H](CO)NC(=O)[C@H](CCC(=O)O)NC(=O)[C@H](CC(C)C)NC(=O)[C@](C)(Cc1ccccc1)NC(=O)[C@H](CCCCN)NC(=O)[C@H](CO)NC(=O)[C@@H](NC(=O)[C@H](CC(=O)O)NC(=O)[C@H](CO)NC(=O)[C@@H](NC(=O)[C@H](Cc1ccccc1)NC(=O)[C@@H](NC(=O)CNC(=O)[C@H](CCC(N)=O)NC(=O)C(C)(C)NC(=O)[C@@H](N)Cc1c[nH]cn1)[C@@H](C)O)[C@@H](C)O)C(C)C)C(C)C)C(=O)N[C@@H](CC(C)C)C(=O)NC(C)(C)C(=O)N[C@@H](CCC(=O)O)C(=O)O
B3: Peptide 484 (peptide)
peptide: H[Aib]QGTFTSDVSK[αMeF]LDTK([AEEA-AEEA-γGlu-C20 diacid])RAQDFVQWLL[Aib]E-OH
modifications: N-terminus assumed
SMILES: CC(C)C[C@H](NC(=O)[C@H](Cc1c[nH]c2ccccc12)NC(=O)[C@H](CCC(N)=O)NC(=O)[C@@H](NC(=O)[C@H](Cc1ccccc1)NC(=O)[C@H](CC(=O)O)NC(=O)[C@H](CCC(N)=O)NC(=O)[C@H](C)NC(=O)[C@H](CCCNC(=N)N)NC(=O)[C@H](CCCCNC(=O)COCCOCCNC(=O)COCCOCCNC(=O)CC[C@H](NC(=O)CCCCCCCCCCCCCCCCCCC(=O)O)C(=O)O)NC(=O)[C@@H](NC(=O)[C@H](CC(=O)O)NC(=O)[C@H](CC(C)C)NC(=O)[C@](C)(Cc1ccccc1)NC(=O)[C@H](CCCCN)NC(=O)[C@H](CO)NC(=O)[C@@H](NC(=O)[C@H](CC(=O)O)NC(=O)[C@H](CO)NC(=O)[C@@H](NC(=O)[C@H](Cc1ccccc1)NC(=O)[C@@H](NC(=O)CNC(=O)[C@H](CCC(N)=O)NC(=O)C(C)(C)NC(=O)[C@@H](N)Cc1c[nH]cn1)[C@@H](C)O)[C@@H](C)O)C(C)C)[C@@H](C)O)C(C)C)C(=O)N[C@@H](CC(C)C)C(=O)NC(C)(C)C(=O)N[C@@H](CCC(=O)O)C(=O)O
B4: Peptide 483 (peptide)
peptide: H[Aib]QGTFTSDVSK[αMeF]LDTK([AEEA-AEEA-γGlu-C18 diacid])RAQDFVQWLL[Aib]E-OH
B5: Peptide 481 (peptide)
peptide: H[Aib]QGTFTSDVSK[αMeF]LDTK([AEEA-AEEA-γGlu-C20 diacid])RARDFVQWLLE[Aib]K-NH2
modifications: N-terminus assumed
SMILES: CC(C)C[C@H](NC(=O)[C@H](Cc1c[nH]c2ccccc12)NC(=O)[C@H](CCC(N)=O)NC(=O)[C@@H](NC(=O)[C@H](Cc1ccccc1)NC(=O)[C@H](CC(=O)O)NC(=O)[C@H](CCCNC(=N)N)NC(=O)[C@H](C)NC(=O)[C@H](CCCNC(=N)N)NC(=O)[C@H](CCCCNC(=O)COCCOCCNC(=O)COCCOCCNC(=O)CC[C@H](NC(=O)CCCCCCCCCCCCCCCCCCC(=O)O)C(=O)O)NC(=O)[C@@H](NC(=O)[C@H](CC(=O)O)NC(=O)[C@H](CC(C)C)NC(=O)[C@](C)(Cc1ccccc1)NC(=O)[C@H](CCCCN)NC(=O)[C@H](CO)NC(=O)[C@@H](NC(=O)[C@H](CC(=O)O)NC(=O)[C@H](CO)NC(=O)[C@@H](NC(=O)[C@H](Cc1ccccc1)NC(=O)[C@@H](NC(=O)CNC(=O)[C@H](CCC(N)=O)NC(=O)C(C)(C)NC(=O)[C@@H](N)Cc1c[nH]cn1)[C@@H](C)O)[C@@H](C)O)C(C)C)[C@@H](C)O)C(C)C)C(=O)N[C@@H](CC(C)C)C(=O)N[C@@H](CCC(=O)O)C(=O)NC(C)(C)C(=O)N[C@@H](CCCCN)C(N)=O
B6: Peptide 478 (peptide)
peptide: H[Aib]QGTFTSDVSK[αMeF]LDTK([AEEA-AEEA-γGlu-C18 diacid])RAQDFVRWLLE[Aib]K-NH2
modifications: N-terminus assumed
SMILES: CC(C)C[C@H](NC(=O)[C@H](Cc1c[nH]c2ccccc12)NC(=O)[C@H](CCCNC(=N)N)NC(=O)[C@@H](NC(=O)[C@H](Cc1ccccc1)NC(=O)[C@H](CC(=O)O)NC(=O)[C@H](CCC(N)=O)NC(=O)[C@H](C)NC(=O)[C@H](CCCNC(=N)N)NC(=O)[C@H](CCCCNC(=O)COCCOCCNC(=O)COCCOCCNC(=O)CC[C@H](NC(=O)CCCCCCCCCCCCCCCCC(=O)O)C(=O)O)NC(=O)[C@@H](NC(=O)[C@H](CC(=O)O)NC(=O)[C@H](CC(C)C)NC(=O)[C@](C)(Cc1ccccc1)NC(=O)[C@H](CCCCN)NC(=O)[C@H](CO)NC(=O)[C@@H](NC(=O)[C@H](CC(=O)O)NC(=O)[C@H](CO)NC(=O)[C@@H](NC(=O)[C@H](Cc1ccccc1)NC(=O)[C@@H](NC(=O)CNC(=O)[C@H](CCC(N)=O)NC(=O)C(C)(C)NC(=O)[C@@H](N)Cc1c[nH]cn1)[C@@H](C)O)[C@@H](C)O)C(C)C)[C@@H](C)O)C(C)C)C(=O)N[C@@H](CC(C)C)C(=O)N[C@@H](CCC(=O)O)C(=O)NC(C)(C)C(=O)N[C@@H](CCCCN)C(N)=O

target: human glucagon receptor (human, UniProt P47871); test: cell-based or functional assay

| cAMP production EC50 [nM] | Binder |
| --- | --- |
| 0.207 | B1 |
| 0.691 | B2 |
| 0.169 | B3 |
| 0.169 | B4 |
| 0.35 | B5 |
| 0.19 | B6 |

target: human GLP-1 receptor (human, UniProt P43220); test: cell-based or functional assay

| cAMP production EC50 [nM] | Binder |
| --- | --- |
| 0.0342 | B1 |
| 0.19 | B2 |
| 0.339 | B3 |
| 0.178 | B4 |
| 0.0522 | B5 |
| 0.00918 | B6 |
